One molecule from paper PMC2744670 (2009) can be followed below.

By IC50 is commonly meant the midpoint of a concentration-inhibition curve.

This test has as its target T1, CCR1 (Homo sapiens, UniProt P32246).
T1 chain: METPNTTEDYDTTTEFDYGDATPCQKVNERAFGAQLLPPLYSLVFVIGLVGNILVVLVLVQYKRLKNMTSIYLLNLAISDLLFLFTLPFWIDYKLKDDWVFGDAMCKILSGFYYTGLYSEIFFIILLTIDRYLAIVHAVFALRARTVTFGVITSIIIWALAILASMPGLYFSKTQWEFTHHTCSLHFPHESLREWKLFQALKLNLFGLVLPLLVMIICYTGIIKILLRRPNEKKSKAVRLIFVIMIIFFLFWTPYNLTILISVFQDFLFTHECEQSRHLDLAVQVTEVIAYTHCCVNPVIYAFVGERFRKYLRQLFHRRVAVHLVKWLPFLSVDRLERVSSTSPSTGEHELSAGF
The experiment in a line: competition binding with [125I]CCL3 on transfected COS-7 cells.

B1: U83A (protein)
chain: FICSSPDAELFSEKSRMSSSVLLGCLLCCMDWSAAVPGKTEPFRKLFDAIMIKKLKSCSAAYPSDLDEGSMCDMADASPTSLELGLSKLDKES
B1: the IC50 was 0.4 nM.
